According to article PMC9025068, “DNA-Binding Properties of a Novel Crenarchaeal Chromatin-Organizing Protein in Sulfolobus acidocaldarius” (Biomolecules, 2022):

Key:
[1] = tested on: Sul12a (Sulfolobus acidocaldarius); assay: EMSA; conditions: KDapp, salmon sperm DNA 25 ug/mL, 20 mM Tris-HCl pH 8.0, 1 mM MgCl2, 0.1 mM DTT, 12.5% glycerol, 50 mM NaCl, 0.4 mM EDTA, 37 C 20 min, 0.1 nM 32P-DNA with 25 ug/mL salmon sperm DNA …
[2] = biological target: the molecule itself; assay: SDS-PAGE with western blot; 100 and 250 ug purified Sul12a separated by SDS-PAGE (4-12%), blotted on PVDF, probed with HRP-conjugated anti-polyHistidine antibodies

carAB promoter region (F2)
Kd ([1]; F1 + F2 mixture): 1200 nM

argO promoter region (F3)
Kd ([1]; F1 + F3 mixture): 3700 nM

B1: Sul12a (natural protein, Sulfolobus acidocaldarius, UniProt Q4JA12 1-107, looked up)
chain: MELTPRLQDIISILKEKGGSVNIRDLALQLKISPKTAKGYARELYRLGYIEMDENENMILKRENPENITDLKKTVETHTAEIEALKKEVEFLKEELSRFRGTKKVKV
notes: Sul12a of Sulfolobus acidocaldarius, encoded by the 324-bp gene Saci_1012; 107 amino acids, native MW 12.4 kDa (recombinant His-tagged monomer 14.3 kDa); the Saci_1012 coding region was amplified from genomic DNA and cloned in pET-45b(+); The preparation also held lower-MW species without tag (contaminants or degradation products); also called Saci_1012; not shown: His tag, N-terminal, kept
stoichiometry N [2]: 2
